Reference: paper PMC11186044, “Rationally Engineering pH Adaptation of Acid‐Induced Arginine Decarboxylase from Escherichia coli to Alkaline Environments to Efficiently Biosynthesize Putrescine” (Advanced Science, 2024)
Positions count from the first letter of the chain named. Numbers in names are those of the source.

B1: AdiA (Escherichia coli K-12) (protein)
chain: MKVLIVESEFLHQDTWVGNAVERLADALSQQNVTVIKSTSFDDGFAILSSNEAIDCLMFSYQMEHPDEHQNVRQLIGKLHERQQNVPVFLLGDREKALAAMDRDLLELVDEFAWILEDTADFIAGRAVAAMTRYRQQLLPPLFSALMKYSDIHEYSWAAPGHQGGVGFTKTPAGRFYHDYYGENLFRTDMGIERTSLGSLLDHTGAFGESEKYAARVFGADRSWSVVVGTSGSNRTIMQACMTDNDVVVVDRNCHKSIEQGLMLTGAKPVYMVPSRNRYGIIGPIYPQEMQPETLQKKISESPLTKDKAGQKPSYCVVTNCTYDGVCYNAKEAQDLLEKTSDRLHFDEAWYGYARFNPIYADHYAMRGEPGDHNGPTVFATHSTHKLLNALSQASYIHVREGRGAINFSRFNQAYMMHATTSPLYAICASNDVAVSMMDGNSGLSLTQEVIDEAVDFRQAMARLYKEFTADGSWFFKPWNKEVVTDPQTGKTYDFADAPTKLLTTVQDCWVMHPGESWHGFKDIPDNWSMLDPIKVSILAPGMGEDGELEETGVPAALVTAWLGRHGIVPTRTTDFQIMFLFSMGVTRGKWGTLVNTLCSFKRHYDANTPLAQVMPELVEQYPDTYANMGIHDLGDTMFAWLKENNPGARLNEAYSGLPVAEVTPREAYNAIVDNNVELVSIENLPGRIAANSVIPYPPGIPMLLSGENFGDKNSPQVSYLRSLQSWDHHFPGFEHETEGTEIIDGIYHVMCVKA
notes: recombinant full-length acid-induced arginine decarboxylase; homodecamer (five dimers) with PLP; plasmids in supplement
B2: AdiA (Escherichia coli K-12; E467K) (protein)
chain: B1 chain with E467K
notes: as for B1
B3: AdiA (Escherichia coli K-12; H736E) (protein)
chain: B1 chain with H736E
notes: as for B1
B4: AdiA (Escherichia coli K-12; E467K/H736E) (protein)
chain: B1 chain with E467K, H736E
notes: as for B1

Substrate: N=C(N)NCCC[C@H](N)C(=O)O
Assay: agmatine formation by HPLC, Michaelis-Menten fit
Format: biochemical, Escherichia coli
Details: pH 7.0, 37 °C, 0.5 mmol·L^−1 PLP, 2.5 mmol·L^−1 MgSO4, 5 mmol·L^−1 DTT
Excerpt: agmatine formation by HPLC, Michaelis-Menten fit on AdiA

In order of falling Km:
1. B4  15.70 ± 0.87 mM
2. B3  15.27 ± 0.79 mM
3. B2  14.30 ± 0.64 mM
4. B1  12.08 ± 0.86 mM

In order of rising kcat:
1. B1  3.54 ± 0.28 s⁻¹
2. B2  15.2 ± 0.23 s⁻¹
3. B3  17.5 ± 0.55 s⁻¹
4. B4  29.2 ± 0.44 s⁻¹

In order of rising kcat/Km:
1. B1  290 M⁻¹ s⁻¹
2. B2  1060 M⁻¹ s⁻¹
3. B3  1150 M⁻¹ s⁻¹
4. B4  1860 M⁻¹ s⁻¹

Molecular target: T1, SpeB (Escherichia coli, UniProt P60651)
T1 construct: agmatinase; construct and assay details only in supplement
T1 sequence (P60651 1-306): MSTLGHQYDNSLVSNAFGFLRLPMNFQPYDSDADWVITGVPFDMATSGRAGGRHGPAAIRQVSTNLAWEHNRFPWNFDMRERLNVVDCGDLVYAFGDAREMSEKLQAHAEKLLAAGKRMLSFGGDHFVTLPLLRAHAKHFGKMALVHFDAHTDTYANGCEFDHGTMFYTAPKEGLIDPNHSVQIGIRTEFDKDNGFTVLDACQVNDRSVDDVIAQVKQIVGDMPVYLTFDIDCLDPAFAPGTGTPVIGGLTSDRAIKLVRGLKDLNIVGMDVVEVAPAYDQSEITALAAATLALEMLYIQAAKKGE
Assay: agmatinase activity versus pH (details in supplement)
Format: biochemical
Details: alkaline pH preferred; enzyme preparation not given

In the case of `N=C(N)NCCCCN` [agmatine], the “agmatinase activity versus pH (details in supplement)” value is reported as “SpeB, agmatinase that catalyzes the synthesis of putrescine from agmatine”.
